In publication PMC11007441, “Deciphering the role of Enterococcus faecium cytidine deaminase in gemcitabine resistance of gallbladder cancer” (The Journal of Biological Chemistry, 2024):

What was measured:
[1] = tested on: Nc1ccn([C@@H]2O[C@H](CO)[C@@H](O)C2(F)F)c(=O)n1; assay: purified protein; conditions: 0.2 uM enzyme; gemcitabine 0.5-8 mM; initial rates 0-1 min
[2] = biological target: the molecule itself; assay: crystal structure; vapor diffusion, EfCDA at 15 mg/ml; apo-I (0.1 M Tris pH 8.5, 2.2 M (NH4)2SO4), apo-II (0.1 M sodium cacodylate pH 6.5, 20% PEG 4000) and complex with dFdU (co-crystallised with gemcitabine 1:10); tetramer from two molecules of the asymmetric unit by crystal symmetry

| Molecule | Km [1] [mM] | stoichiometry N [2] |
| --- | --- | --- |
| EfCDA (cytidine deaminase of Enterococcus faecium) (Enterococcus lactis) | 8.44 |  |
| cytidine deaminase of Enterococcus faecium (EfCDA) (enzyme, UniProt Q3XXR8 1-132, looked up, cytidine deaminase of Enterococcus faecium, full-length protein with a single CDA catalytic domain, 132 amino acids; UniProt A0A133N269, WP_002291109.1; Homotetramer in the crystal: molecules A and B in the asymmetric unit, the tetramer completed by a symmetry operation; One zinc ion per chain (C55, C88, C91); also called EfCDD; T-CDA; source: E. coli BL21 (DE3), purified (HisTrap HP, HiTrap Q, …)) MAELKQEWINTAIEALDKAYVPYSHFPVGACLVTESGKIYQGINIENASFGLTNCAERTAFFKAVSEGEKTFTHLVVAGHTPDPISPCGACRQVMAEFCSPDMPVTLVGDNGVTKATTVRALLPYAFTEKDL |  | 4 |
